Among the data in article PMC8567202, “Phosphoinositide-binding activity of Smad2 is essential for its function in TGF-β signaling” (The Journal of Biological Chemistry, 2021) are Kd values, retold here.

Holding throughout (settings): both partners purified
The target in one assay is T1, Smad2-W422A (UniProt Q62432 1-467, W422A).
T1 construct: Smad2, full length, point mutant W422A; source: E. coli BL21 RIL codon plus, purified (Ni-NTA)
Put plainly: fluorescence polarisation; fluorescence anisotropy; F-Ahx-labelled peptide fixed (2.5 μM in the methods, 2.5 nM in the legend), Smad2 WT or mutant varied (0-250 μM in the methods, 0-150 μM in the legend); 20 mM Tris pH 7.9, 160 mM NaCl; 10 min incubation. (In general: In fluorescence polarisation assays a small probe gives low polarisation when free and higher when bound to something large.)

For another assay, the target named is T2, Smad2-K420A (UniProt Q62432 1-467, K420A).
T2 construct: Smad2, full length, point mutant K420A; source: E. coli BL21 RIL codon plus, purified (Ni-NTA)
The assay is described as above.

The next assay has as its target T3, Smad2-Y426A (UniProt Q62432 1-467, Y426A).
T3 construct: Smad2, full length, point mutant Y426A; source: E. coli BL21 RIL codon plus, purified (Ni-NTA)
Described as above.

Another assay has as its target T4, Smad2-E425K (UniProt Q62432 1-467, E425K).
T4 construct: Smad2, full length, charge-reversal point mutant E425K; source: E. coli BL21 RIL codon plus, purified (Ni-NTA)
Described as above.

The next assay has as its target T5, Smad2-R427A/R428A (UniProt Q62432 1-467, R427A | R428A).
T5 construct: Smad2, full length, double mutant R427A/R428A; also called RR/AA; source: E. coli BL21 RIL codon plus, purified (Ni-NTA)
The assay is described as above.

In assay [1] the target is T6, Smad2 wild type, full length (UniProt Q62432 1-467).
T6 construct: Smad2, full length (FL), bacterially expressed from pET-30a; also called Smad2 WT; Smad2-FL; source: E. coli BL21 RIL codon plus, purified (Ni-NTA)
The description is as above.

Assay [2] addresses T6, Smad2 wild type, full length. The assay is described as above. This is another data set of the same source.
The target is the same in assay [3]. Put plainly: fluorescence polarisation; fluorescence anisotropy as a1, in the presence of 50 μM POPC/POPS/PI(4,5)P2 (77:20:3) LUVs.

Square brackets hold non-standard residues; d marks the D form. Ends that are not written are not given here. fluorescein = fluorescein-6-aminohexanoyl (F-Ahx); pS = N[C@@H](COP(=O)(O)O)C(=O)O; Ahx = NCCCCCC(=O)O

T6 sequence (Q62432 whole entry): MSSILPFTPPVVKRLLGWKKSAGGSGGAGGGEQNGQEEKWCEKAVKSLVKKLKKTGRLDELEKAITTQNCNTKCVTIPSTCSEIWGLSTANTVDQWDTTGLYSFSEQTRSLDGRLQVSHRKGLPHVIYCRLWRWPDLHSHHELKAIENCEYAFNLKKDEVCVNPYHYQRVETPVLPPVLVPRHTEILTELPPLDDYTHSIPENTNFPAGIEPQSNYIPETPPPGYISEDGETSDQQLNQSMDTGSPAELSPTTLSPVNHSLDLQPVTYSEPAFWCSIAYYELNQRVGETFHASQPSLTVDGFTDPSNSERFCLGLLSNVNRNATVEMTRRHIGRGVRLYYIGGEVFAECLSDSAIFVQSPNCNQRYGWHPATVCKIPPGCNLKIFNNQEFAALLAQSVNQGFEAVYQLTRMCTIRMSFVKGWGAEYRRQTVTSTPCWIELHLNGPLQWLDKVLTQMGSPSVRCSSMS
T4 sequence (Q62432 whole entry E425K): as the sequence (Q62432 whole entry) above, with E425K counted along it
T2 sequence (Q62432 whole entry K420A): as the sequence (Q62432 whole entry) above, with K420A counted along it
T5 sequence (Q62432 whole entry R427A/R428A): as the sequence (Q62432 whole entry) above, with R427A, R428A counted along it
T3 sequence (Q62432 whole entry Y426A): as the sequence (Q62432 whole entry) above, with Y426A counted along it
T1 sequence (Q62432 whole entry W422A): as the sequence (Q62432 whole entry) above, with W422A counted along it

B1: TβRI GS region peptide (F-Ahx-YDMTTpSGpSGpSGLPLL) (peptide)
peptide: {fluorescein-Ahx}-YDMTT[pS]G[pS]G[pS]GLPLL
notes: type I TGF-β receptor (TβRI), GS region, triply phosphorylated; also called GS peptide; TβRI peptide; source: synthetic peptide; bought: AlanScientific
As for B1, the Kd (commonly the constant that tells how readily two partners part at equilibrium) was determined as 21 µM with Smad2-W422A; 200 µM in the assay with Smad2-K420A; 20 µM in the assay with Smad2-Y426A; 8 µM in the assay with Smad2-E425K; 44 µM with Smad2-R427A/R428A; 20 µM in assay [1]. The Kd is 0.02 ± 0.006 µM in assay [2] and 0.06 ± 0.007 µM in assay [3].

B2: TβRI L45 loop region peptide (F-Ahx-ADNKDNGT) (peptide)
peptide: {fluorescein-Ahx}-ADNKDNGT
notes: type I TGF-β receptor (TβRI), L45 loop; also called L45 peptide; L45 loop peptide; source: synthetic peptide; bought: AlanScientific
Regarding B2, the Kd was determined as 67 µM in the assay with Smad2-W422A; 100 µM with Smad2-K420A; 70 µM with Smad2-Y426A; 55 µM in the assay with Smad2-E425K; 75 µM with Smad2-R427A/R428A; 66 µM in assay [1].
